Laboratory results taken from patent US20190083612A1 (RINAT NEUROSCIENCE, published 2019).
Residue numbers refer to the chain shown, from its start.

How the values were obtained:
[1] = molecular target: Cynomolgus Monkey-FCGRIIIa 42R (cynomolgus monkey) (UniProt Q8SPW2); test: SPR (ProteOn NLC chip), 25 C, pH 7.4, n = 3
[2] = molecular target: Cynomolgus Monkey-FCGRIIa (cynomolgus monkey); test: SPR (ProteOn NLC chip), 25 C, pH 7.4, n = 3
[3] = molecular target: Cynomolgus Monkey-FCGRIIIa 42S (cynomolgus monkey); test: SPR (ProteOn NLC chip), 25 C, pH 7.4, n = 3
[4] = molecular target: Cynomolgus Monkey-FcRn (cynomolgus monkey) (UniProt Q8SPV9); test: SPR (ProteOn NLC chip), 25 C, pH 5.9, n = 3
Cynomolgus Monkey-FcRn (cynomolgus monkey), sequence (Q8SPV9 24-297 limits assumed, form in doubt): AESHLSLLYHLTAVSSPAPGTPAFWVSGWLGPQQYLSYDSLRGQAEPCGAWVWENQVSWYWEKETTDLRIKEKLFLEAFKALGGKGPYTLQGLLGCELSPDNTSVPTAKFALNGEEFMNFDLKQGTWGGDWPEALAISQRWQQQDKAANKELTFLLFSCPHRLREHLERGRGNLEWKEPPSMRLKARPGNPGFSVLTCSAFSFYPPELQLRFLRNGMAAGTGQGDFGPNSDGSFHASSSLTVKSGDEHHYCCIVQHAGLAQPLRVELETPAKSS

[5] = molecular target: hu-FcRn (human neonatal Fc receptor) (human) (UniProt P55899); test: SPR (ProteOn NLC chip), 25 C, pH 5.9, n = 3
hu-FcRn (human neonatal Fc receptor) (human), sequence (P55899 24-297 limits assumed, chain 1 of 2): as the sequence (Q8SPV9 24-297 limits assumed, form in doubt) above, with D39N, Q44E, S99G, G189S, N190S, M217L, T269S counted along it
hu-FcRn (human neonatal Fc receptor) (human), sequence (chain, as listed by the source limits assumed, chain 2 of 2): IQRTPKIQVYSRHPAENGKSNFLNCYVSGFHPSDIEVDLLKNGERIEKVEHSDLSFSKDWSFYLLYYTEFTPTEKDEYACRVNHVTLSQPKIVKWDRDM

[6] = molecular target: hu-FCGRIIa (hu-CD32a) 131R (human) (UniProt P12318); test: SPR (ProteOn NLC chip), 25 C, pH 7.4
hu-FCGRIIa (hu-CD32a) 131R (human), sequence (P12318 36-218 H167R): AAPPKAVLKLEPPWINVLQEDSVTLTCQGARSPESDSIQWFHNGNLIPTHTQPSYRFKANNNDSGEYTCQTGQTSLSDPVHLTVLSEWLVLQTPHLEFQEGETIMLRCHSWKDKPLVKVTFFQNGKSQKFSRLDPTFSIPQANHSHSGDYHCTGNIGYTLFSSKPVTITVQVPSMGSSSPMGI

[7] = molecular target: hu-FCGRIIa (hu-CD32a) 131H (human) (UniProt P12318); test: SPR (ProteOn NLC chip), 25 C, pH 7.4
hu-FCGRIIa (hu-CD32a) 131H (human), sequence (P12318 36-218): as the sequence (P12318 36-218 H167R) above, with R132H counted along it

[8] = molecular target: hu-FCGRIIb (hu-CD32b) (human) (UniProt P31994); test: SPR (ProteOn NLC chip), 25 C, pH 7.4
hu-FCGRIIb (hu-CD32b) (human), sequence (P31994 46-217): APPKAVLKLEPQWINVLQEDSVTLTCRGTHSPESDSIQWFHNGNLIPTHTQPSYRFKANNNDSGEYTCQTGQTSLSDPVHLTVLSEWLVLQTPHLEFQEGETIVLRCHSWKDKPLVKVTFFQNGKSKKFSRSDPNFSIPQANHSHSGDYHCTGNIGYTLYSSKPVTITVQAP

[9] = molecular target: hu-FCGRI (hu-CD64) (human) (UniProt P12314); test: SPR (ProteOn NLC chip), 25 C, pH 7.4
hu-FCGRI (hu-CD64) (human), sequence (P12314 16-288 limits assumed): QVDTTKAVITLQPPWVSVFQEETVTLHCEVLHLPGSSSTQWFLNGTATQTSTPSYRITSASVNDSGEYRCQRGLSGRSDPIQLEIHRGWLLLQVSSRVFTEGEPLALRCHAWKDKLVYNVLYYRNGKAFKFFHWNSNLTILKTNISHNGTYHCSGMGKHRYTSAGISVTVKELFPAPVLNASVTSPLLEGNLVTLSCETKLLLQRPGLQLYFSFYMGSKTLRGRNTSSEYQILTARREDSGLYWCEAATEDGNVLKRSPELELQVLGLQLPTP

[10] = molecular target: hu-FCGRI (hu-CD64) (human) (UniProt P12314); test: SPR (ProteOn NLC chip), 25 C, pH 7.4, n = 4
[11] = molecular target: T1, rat PD-1 on primary rat T cells (rat, UniProt D3ZIN8 25-287); test: FACS, naive primary rat T cells
T1 sequence: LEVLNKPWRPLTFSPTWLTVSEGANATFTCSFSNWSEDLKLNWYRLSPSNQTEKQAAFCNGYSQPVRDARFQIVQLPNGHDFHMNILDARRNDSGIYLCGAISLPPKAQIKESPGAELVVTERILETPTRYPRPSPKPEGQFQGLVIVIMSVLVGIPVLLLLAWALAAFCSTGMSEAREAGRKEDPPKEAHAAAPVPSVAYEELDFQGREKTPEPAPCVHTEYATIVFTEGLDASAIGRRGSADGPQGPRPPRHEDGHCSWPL

[12] = molecular target: cynomolgus monkey PD-1 on primary cynomolgus monkey T cells (cynomolgus monkey) (UniProt B0LAJ3); test: FACS, activated primary cynomolgus monkey T cells
cynomolgus monkey PD-1 on primary cynomolgus monkey T cells (cynomolgus monkey), sequence (B0LAJ3 entry or part of it limits assumed): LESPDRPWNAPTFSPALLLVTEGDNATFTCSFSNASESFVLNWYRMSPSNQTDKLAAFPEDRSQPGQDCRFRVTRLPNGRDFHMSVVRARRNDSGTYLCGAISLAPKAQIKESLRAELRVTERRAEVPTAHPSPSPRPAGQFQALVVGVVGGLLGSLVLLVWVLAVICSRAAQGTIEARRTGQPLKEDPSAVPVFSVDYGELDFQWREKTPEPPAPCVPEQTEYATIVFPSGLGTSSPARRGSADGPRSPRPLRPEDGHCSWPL

[13] = molecular target: cynomolgus monkey PD-1 on primary cynomolgus monkey T cells (cynomolgus monkey) (UniProt B0LAJ3); test: FACS, naive primary cynomolgus monkey T cells
[14] = molecular target: T1, rat PD-1 on primary rat T cells; test: FACS, activated primary rat T cells
[15] = molecular target: human PD-1 on primary human T cells (human) (UniProt Q15116); test: FACS, naive primary human T cells
human PD-1 on primary human T cells (human), sequence (Q15116 25-288 limits assumed): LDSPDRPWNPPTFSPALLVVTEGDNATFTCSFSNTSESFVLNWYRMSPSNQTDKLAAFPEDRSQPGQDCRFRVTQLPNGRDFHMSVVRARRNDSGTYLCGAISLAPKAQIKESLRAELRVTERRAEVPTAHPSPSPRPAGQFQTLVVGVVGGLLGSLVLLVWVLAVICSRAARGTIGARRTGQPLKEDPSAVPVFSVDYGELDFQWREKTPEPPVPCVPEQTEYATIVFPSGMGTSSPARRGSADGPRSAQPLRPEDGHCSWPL

[16] = molecular target: human PD-1 on primary human T cells (human) (UniProt Q15116); test: FACS, activated primary human T cells
[17] = molecular target: T1, rat PD-1 on primary rat T cells; test: flow cytometry, activated rat T cells
[18] = molecular target: T2, mouse-PD-L2 (positive control of Example 12) (mouse, UniProt Q9WUL5 20-219, limits assumed); test: SPR, 25 C
T2 sequence (looked up): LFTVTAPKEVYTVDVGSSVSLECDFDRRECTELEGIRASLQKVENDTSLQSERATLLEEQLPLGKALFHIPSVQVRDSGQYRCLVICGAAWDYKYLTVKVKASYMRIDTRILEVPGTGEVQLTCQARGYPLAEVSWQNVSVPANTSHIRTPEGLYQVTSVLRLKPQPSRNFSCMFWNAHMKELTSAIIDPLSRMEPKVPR

[19] = molecular target: mouse-PD-L1 (positive control of Example 12) (mouse, UniProt Q9EP73 19-238, limits assumed); test: SPR, 25 C
[20] = molecular target: T3, human PD-1 (hPD-1) monomer (human, UniProt Q15116 25-167); test: SPR, human PD-1, 37 C
T3 construct: also called hu-PD-1; not shown: His tag (His-tagged monomer)
T3 sequence (Q15116 25-167 limits assumed): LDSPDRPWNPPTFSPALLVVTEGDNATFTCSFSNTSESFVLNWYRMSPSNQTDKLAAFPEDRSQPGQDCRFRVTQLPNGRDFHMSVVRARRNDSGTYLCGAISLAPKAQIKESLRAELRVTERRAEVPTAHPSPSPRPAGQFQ

[21] = molecular target: T4, cynoPD-1-hFc1 (prepared in-house) (cynomolgus monkey; human, UniProt B0LAJ3 25-170); test: SPR (Biacore 2000), Fab over anti-hFc-captured PD-1-hFc1, 25 C
T4 sequence (B0LAJ3 entry or part of it limits assumed): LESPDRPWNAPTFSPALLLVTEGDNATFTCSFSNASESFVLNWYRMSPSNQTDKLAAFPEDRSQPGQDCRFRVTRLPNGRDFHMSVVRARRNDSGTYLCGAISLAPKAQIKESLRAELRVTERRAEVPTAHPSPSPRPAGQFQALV
Description: (§1) All interaction analysis was performed on label-free biosensors at 25° C. unless stated otherwise. Surface plasmon resonance biosensors (ProteOn-XPR™ from BioRad™, and Biacore 2000™ and Biacore T200™ from GE Life Sciences) were used to study human and cynomolgus monkey PD-1 and a biolayer interferometry biosensor (Octet-Red384, Fortebio/Pall Life Sciences) was used to study mouse PD-1. ProteOn experiments were performed in PBS pH 7.4+0.01% Tween-20 (PBST) running buffer. Biacore experiments were performed in 10 mM Hepes pH 7.4, 150 mM NaCl, 0.05% Tween-20 (HBST+) and Octet experiments were performed in HBST+ with 1 g/l BSA. The ProteOn data were processed in the ProteOn Manager software, the Biacore data were processed in Biaevaluation, and the Octet data were simply aligned to zero in the control software.
(§2) An anti-hFc polyclonal antibody was amine-coupled to the chip and used to capture approximately 90 RU hPD-1-hFc1 and 125 RU cynoPD-1-hFc1 on flow cells 2 and 3, leaving flow cell 1 blank (naked anti-hFc capture surface) to provide a reference channel. Recombinant purified Fabs were injected for two min as analyte at 0, 10, and 100 nM over freshly captured PD-1-hFc1 fusion proteins, allowing a 15-min dissociation time.

[22] = molecular target: T5, hPD-1-hFc1 (R&D systems cat. no. 1086PD) (human, UniProt Q15116 25-167); test: as above
T5 construct: Bought; not shown: human IgG1 Fc (hFc1)
T5 sequence (Q15116 25-167 limits assumed): as the sequence (Q15116 25-167 limits assumed) above
Description: as §1, §2

[23] = molecular target: T4, cynoPD-1-hFc1 (prepared in-house); test: SPR (Biacore 2000), Fab over anti-hFc-captured PD-1-hFc1, 25 C; 5% rule
Description: as §2

[24] = molecular target: T5, hPD-1-hFc1 (R&D systems cat. no. 1086PD); test: as above
Description: as §2

Cynomolgus Monkey-FCGRIIIa 42R (cynomolgus monkey), sequence (Q8SPW2 17-208 limits assumed): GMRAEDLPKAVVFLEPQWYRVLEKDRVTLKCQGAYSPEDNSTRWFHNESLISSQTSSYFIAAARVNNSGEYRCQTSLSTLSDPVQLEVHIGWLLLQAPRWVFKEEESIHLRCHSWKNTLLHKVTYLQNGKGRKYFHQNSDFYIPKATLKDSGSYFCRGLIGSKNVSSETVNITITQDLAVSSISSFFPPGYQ

For “Isotype-matched control, hu-IgG4 (antibody)”, the Kd [1] was 3200 nM, the Kd [2] was 2600 nM and the Kd [3] was 1900 nM. The Kd [4] was 570 nM, the Kd [5] was 820 nM and the Kd [6] was 400 nM. The Kd [7] was 3900 nM, the Kd [8] was 700 nM and the koff [9] was 0.0018 s⁻¹. The kon [9] was 1e+06 M⁻¹ s⁻¹ and the Kd [10] was 0.177 nM.

With “Negative control antibody (anti-bovine herpes virus, IgG4-HG framework)” the % Binding [11] was 0.82%, the % Binding [12] was 4.67% and the % Binding [13] was 5.38%. For the same molecule, the % Binding [14] was 4.36%, the % Binding [15] was 3.49% and the % Binding [16] was 4.75%.

B1: Rat-PD-L1-Fc-Tag (Creative BioMart) (Fc fusion, not shown: a dimerising Fc or GST; small tags and cut ends)
chain: FTITAPKDLYVVEYGSNVTMECRFPVEQKLDLLALVVYWEKEDKEVIQFVEGEEDLKPQHSSFRGRAFLPKDQLLKGNAVLQITDVKLQDAGVYCCMISYGGADYKRITLKVNAPYRKINQRISMDPATSEHELMCQAEGYPEAEVIWTNSDHQSLSGETTVTTSQTEEKLLNVTSVLRVNATANDVFHCTFWRVHSGENHTAELIIPELPVPRLPHNRTH
B1: binds [17].

B2: rat-PD-1 (recombinant purified, Example 12) (receptor)
chain: LEVLNKPWRPLTFSPTWLTVSEGANATFTCSFSNWSEDLKLNWYRLSPSNQTEKQAAFCNGYSQPVRDARFQIVQLPNGHDFHMNILDARRNDSGIYLCGAISLPPKAQIKESPGAELVVTERILETPTRYPRPSPKPEGQFQGL
B2: binds [18]; binds [19].

B3: mAb4 (antibody, V domains shown)
VH: QVQLVQSGAEVKKPGASVKVSCKASGYTFTSYWINWVRQAPGQGLEWMGNIYPGSSLTNYNEKFKNRVTMTRDTSTSTVYMELSSLRSEDTAVYYCARLLTGTFAYWGQGTLVTVSS
VL: DIVMTQSPDSLAVSLGERATINCKSSQSLWDSTNQKNFLTWYQQKPGQPPKLLIYWTSTRESGVPDRFSGSGSGTDFTLTISSLQAEDVAVYYCQNDYFYPLTFGGGTKVEIK
notes: Variable regions only
B3 gave a Kd [20] of 89 nM.

B4: mAb7 Fab (Fab, V domains shown)
VH: B3 VH with L100S
VL: B3 VL with T33G, T59Y, L102H
In the case of B4, the Kd [21] is reported as under 0.108 nM, the kon [21] is reported as 526000 M⁻¹ s⁻¹ and the Kd [22] is reported as under 0.101 nM. It also gave a kon [22] of 567000 M⁻¹ s⁻¹, a koff [23] of under 5.7e-05 s⁻¹ and a koff [24] of under 5.7e-05 s⁻¹.

B5: mAb15 Fab (Fab, V domains shown)
VH: B3 VH with Y52W
VL: B3 VL with T33G, T59Y, L102H
B5 gave a Kd [21] of under 0.069 nM, a kon [21] of 824000 M⁻¹ s⁻¹ and a Kd [22] of under 0.062 nM. It also gave a kon [22] of 916000 M⁻¹ s⁻¹, a koff [23] of under 5.7e-05 s⁻¹ and a koff [24] of under 5.7e-05 s⁻¹.
